In paper PMC8290868 (Cell Discovery, 2021):

Molecular target: T1, SARS-CoV-2 S protein extracellular domain (S-ECD), prefusion-stabilised trimer (SARS-CoV-2, Wuhan-Hu-1 (wild type), UniProt P0DTC2, proline substitution at residue 986 | proline substitution at residue 987 | …)
T1 construct: also called trimeric SARS-CoV-2 S protein; S trimer
Test: cryo-EM structure
Conditions: both partners purified

B1: 7B8 Fab fragment (Fab, V domains shown)
VH: QVQLVESGGGVVQPGRSLRLSCAASGFIFSSYGMHWVRQAPGKGLEWVAVIWFDGSNKYYADSVKGRFTISRDNSKNTLYLQMNSLRAEDTAVYYCARETVSYGMDVWGQGTTVTVSS
VL: NIQMTQSPSAMSASVGDRVTITCRARQGISNYLAWFQQKPGKVPKHLIYAASSLLSGVPSRFSGSGSETEFTLTISSLQPEDFATYYCLQHNSYPYTFGQGTKLEIK
notes: also called Ab4
  binding result: binds
